Data from US20060247419A1, “Translocation dependent complementation for drug screening” (BioImage A/S, priority 2002, published 2006).

Legend:
[1] = molecular target: FKBP and FRB (FKBP binding part of FRAP) (Homo sapiens, UniProt P42345+P62942); assay: Rapamycin-inducible FKBP:FRB split-EYFP complementation, CHO-hIR [PS1767+PS1768] cells; type: cell-based; conditions: 1 μM rapamycin
Description: Probes were co-transfected in pairs into CHO-hIR cells (supra), PS1769 with PS1771 and PS1767 with PS1768, using the transfection agent FuGENE™ 6 (Boehringer Mannheim Corp, USA) according to the method recommended by the suppliers. Cells were cultured in growth medium (HAM's F12 nutrient mix with Glutamax-1, 10% foetal bovine serum (FBS), 100 μg penicillin-streptomycin mixture ml^−1 (GibcoBRL, supplied by Life Technologies, Denmark)). Transfected cells were cultured in this medium, with the addition of two selection agents appropriate to the plasmids being used, being 1 mg/ml zeocin plus 0.5 mg/mlG418 sulphate. Cells were cultured at 37° C. in 100% humidity and conditions of normal atmospheric gases supplemented with 5% CO2.
After 10 to 12 days culture in the continuous presence of the selection agents, the resulting cell lines were judged to be stably transfected. For fluorescence microscopy, aliquots of cells were transferred to Lab-Tek chambered cover glasses (Nalge Nunc International, Naperville USA) and allowed to adhere for at least 24 hours to reach about 80% confluence. Images were routinely collected using a Nikon Diaphot 300 inverted fluorescence microscope (Nikon Corp., Tokyo, Japan) using x20 (dry) and/or x40 (oil immersion) objectives and coupled to a Orca ER charged coupled device (CCD) camera (Hammamatsu Photonics K.K., Hammamatsu City, Japan). […]

[2] = molecular target: FKBP-CtermEYFP173 (human; Aequorea victoria) (UniProt P62942); assay: cell-based or functional assay
[3] = system: translocation of β-catenin to the nucleus (GSK3β inhibited by lithium; FKBP:FRB induced by rapamycin); assay: TDCrap: β-catenin translocation dependent complementation with rapamycin-inducible FKBP:FRB, CHO ps1809 with ps1827; type: cell-based, chinese hamster; conditions: 5 mM LiCl for 16 hours
Source text: In this example, complementary halves of GFP are fused separately to β-catenin and to histone H2B and co-expressed within cells. The β-catenin construct is expected to be localised entirely in the cell cytoplasm at a low level, its concentration effectively controlled by the activity of the protein kinase GSK3β. The H2B construct will be localised in the nuclei of cells by the highly basic histone moeity. […] Both constructs have also been engineered to contain inducible interaction domains. […] The H2B construct includes FRB, which is the 93 amino acid portion of FRAP, the large PI3Kinase homolog FRAP (also known as mTOR or RAFT).
Plasmids ps1809 with ps1827 were co-transfected into chinese hamster ovary cells (CHO) using the transfection agent FuGENE™ 6 (Boehringer Mannheim Corp, USA) according to the method recommended by the suppliers. […]
After 10 to 12 days culture in the continuous presence of the selection agents, the resulting cell lines were judged to be stably transfected. For fluorescence microscopy, aliquots of cells were transferred to Lab-Tek chambered cover glasses (Nalge Nunc International, Naperville USA) and allowed to adhere for at least 24 hours to reach about 80% confluence. […] Images were collected using a Zeiss LSM410 inverted confocal fluorescence microscope (Zeiss, Jena, Germany) using x40 (oil immersion) objective. […]

[4] = system: translocation of β-catenin to the nucleus (GSK3β inhibited by lithium ions); assay: TDCzip: β-catenin translocation dependent complementation with leucine zippers, CHO[ps1736+ps1758]; type: cell-based, chinese hamster; conditions: 5 mM LiCl for 16 hours
Source text: In this example, complementary halves of GFP are fused separately to β-catenin and to histone H2B and co-expressed within cells. The β-catenin construct is expected to be localised entirely in the cell cytoplasm at a low level, its concentration effectively controlled by the activity of the protein kinase GSK3β. The H2B construct will be localised in the nuclei of cells by the highly basic histone moeity. […] However, when GSK3β is inhibited by lithium ions, the cytoplasmic level of the β-catenin construct is expected to increase in the cytoplasm, and to translocate in significant fashion to the nucleus. Both constructs have been engineered to contain a leucine zipper domain. […] The development of nuclear fluorescence in lithium-treated cells therefore effectively reports on the translocation of β-catenin to the nucleus. […]
After 10 to 12 days culture in the continuous presence of the selection agents, the resulting cell lines were judged to be stably transfected. For fluorescence microscopy, aliquots of cells were transferred to Lab-Tek chambered cover glasses (Nalge Nunc International, Naperville USA) and allowed to adhere for at least 24 hours to reach about 80% confluence. […] Image collection, subsequent measurement and analysis of fluorescence intensity were all controlled by IPLab Spectrum for Windows software (Scanalytics, Fairfax, Va. USA). […]

[5] = system: β-catenin translocation to the nucleus and interaction with TCF4 (GSK3β inhibited by lithium ions); assay: TIDC: β-catenin translocation and β-catenin:TCF4 interaction dependent complementation, CHO[ps1706+ps1810]; type: cell-based, chinese hamster; conditions: 5 mM LiCl for 16 hours
Source text: In this example, complementary halves of GFP are fused separately to β-catenin and also to histone H2B coupled to the β-catenin-binding fragment of the transcriptional co-activator TCF4. Both constructs are then co-transfected and expressed within mammalian cells. The β-catenin construct is expected to be localised entirely in the cell cytoplasm at a low level, its concentration effectively controlled by the activity of the protein kinase GSK3β. The H2B-TCF4 construct will be localised in the nuclei of cells by the highly basic histone moeity. […] The development of nuclear fluorescence in lithium-treated cells therefore effectively reports on the combined result of translocation of β-catenin to the nucleus and the subsequent interaction between β-catenin and the β-catenin binding domain of TCF4. […]
After 10 to 12 days culture in the continuous presence of the selection agents, the resulting cell lines were judged to be stably transfected. For fluorescence microscopy, aliquots of cells were transferred to Lab-Tek chambered cover glasses (Nalge Nunc International, Naperville USA) and allowed to adhere for at least 24 hours to reach about 80% confluence. Images were collected using a Zeiss LSM410 inverted confocal fluorescence microscope (Zeiss, Jena, Germany) using x40 (oil immersion) objective. […]

[6] = molecular target: FRB-CtermEYFP173 (human; Aequorea victoria) (UniProt P42345); assay: cell-based or functional assay

CO[C@H]1C[C@@H]2CC[C@@H](C)[C@@](O)(O2)C(=O)C(=O)N2CCCC[C@H]2C(=O)O[C@H]([C@H](C)C[C@@H]2CC[C@@H](O)[C@H](OC)C2)CC(=O)[C@H](C)/C=C(\C)[C@@H](O)[C@@H](OC)C(=O)[C@H](C)C[C@H](C)/C=C/C=C/C=C/1C [rapamycin]
proportion of cells with significantly greater EYFP fluorescence ([1]; after 4 hours): approximately 40% | proportion of the cell population responding ([1]; after 16 hours): approximately 70%

NtermE[F64L]YFP172-FRB (from UniProt P42345 2025-2114)
EC50 of FK506 in competition with 100 nM rapamycin, EYFP fluorescence/cell, 16 hours, 'mid to low-green' group [2]: 1200 nM | EC50 of rapamycin, dose-response of EYFP fluorescence at 7 and 30 hours, 'black' FACS group [2]: 100 nM | EC50 of rapamycin, dose-response of EYFP fluorescence at 7 and 30 hours, 'medium to low-green' FACS group [2]: 250 nM | half-time for development of cellular EYFP fluorescence after 3 µM rapamycin [2]: 5 h | increase in EYFP fluorescence with rapamycin over the unstimulated value, 'medium to low-green' and 'black' FACS groups [2]: > 20 fold | share of cells responding 16 hours after 1 µM rapamycin [2]: 70 % of cells | share of cells with EYFP fluorescence before rapamycin (t=0) [2]: < 5 % of cells | share of cells with greater EYFP fluorescence 4 hours after 1 µM rapamycin [2]: 40 % of cells

[Cl-].[Li+] [LiCl, lithium chloride]
number of cells containing fluorescent GFP (nuclear) [3]: the number of cells containing fluorescent GFP increases greatly | cells with GFP-bright nuclei [4]: a fraction of these cells display GFP-bright nuclei | number of cells containing fluorescent GFP (nuclear) [5]: the number of cells containing fluorescent GFP increases greatly

NtermE[F64L]YFP172-FKBP (from UniProt P62942 1-108)
EC50 of FK506 in competition with 100 nM rapamycin, EYFP fluorescence/cell, 16 hours, 'black' group [6]: 1200 nM
